Test results from publication PMC9091645.

Substrate: CCCC(=O)Oc1ccc([N+](=O)[O-])cc1
Assay: initial rates of p-nitrophenyl butyrate hydrolysis
Type: biochemical, Rhizopus arrhizus
Conditions: 30 °C, 25 mM phosphate buffer pH 8, substrate 10-100 mM

B1: ROL (Rhizopus oryzae lipase; wild type WROL) (Rhizopus arrhizus) (protein)
chain: SDGGKVAAATTAQIQEFTKYAGIAATAYCRSVVPGNKWDCVQCQKWVPDGKIITTFTSLLSDTNGYVLRSDKQKTIYLVFRGTNSFRSAITDIVFNFSDYKPVKGAKVHAGFLSSYEQVVNDYFPVIQEQLTANPTYKVIVTGHSLGGAQALLAGMDLYQREPRLSPKNLSIFTVGGPRVGNPTFAYYVESTGIPFQRTVHKRDIVPHVPPQSFGFLHPGVESWIKSGTSNVQICTSEIETKDCSNSIVPFTSLLDHLSYFDINEGSCL
  Km: 5.56 mM
  Vmax: 2.34 µmol/min/mg
  kcat: 1.25 s⁻¹
  kcat/Km: 220 M⁻¹ s⁻¹
